In IntAct's records for PubMed 23108047:

B1: Coiled-coil domain-containing protein 6 (Homo sapiens), Q16204 (parent)
chain: MADSASESDTDGAGGNSSSSAAMQSSCSSTSGGGGGGGGGGGGGKSGGIVISPFRLEELTNRLASLQQENKVLKIELETYKLKCKALQEENRDLRKASVTIQARAEQEEEFISNTLFKKIQALQKEKETLAVNYEKEEEFLTNELSRKLMQLQHEKAELEQHLEQEQEFQVNKLMKKIKKLENDTISKQLTLEQLRREKIDLENTLEQEQEALVNRLWKRMDKLEAEKRILQEKLDQPVSAPPSPRDISMEIDSPENMMRHIRFLKNEVERLKKQLRAAQLQHSEKMAQYLEEERHMREENLRLQRKLQREMERREALCRQLSESESSLEMDDERYFNEMSAQGLRPRTVSSPIPYTPSPSSSRPISPGLSYASHTVGFTPPTSLTRAGMSYYNSPGLHVQHMGTSHGITRPSPRRSNSPDKFKRPTPPPSPNTQTPVQPPPPPPPPPMQPTVPSAATSQPTPSQHSAHPSSQP

Tests used:
Conditions in all cases: with fbxw7_human FBXW7, Q969H0
Chain of fbxw7_human FBXW7, Q969H0 (Q969H0 whole entry): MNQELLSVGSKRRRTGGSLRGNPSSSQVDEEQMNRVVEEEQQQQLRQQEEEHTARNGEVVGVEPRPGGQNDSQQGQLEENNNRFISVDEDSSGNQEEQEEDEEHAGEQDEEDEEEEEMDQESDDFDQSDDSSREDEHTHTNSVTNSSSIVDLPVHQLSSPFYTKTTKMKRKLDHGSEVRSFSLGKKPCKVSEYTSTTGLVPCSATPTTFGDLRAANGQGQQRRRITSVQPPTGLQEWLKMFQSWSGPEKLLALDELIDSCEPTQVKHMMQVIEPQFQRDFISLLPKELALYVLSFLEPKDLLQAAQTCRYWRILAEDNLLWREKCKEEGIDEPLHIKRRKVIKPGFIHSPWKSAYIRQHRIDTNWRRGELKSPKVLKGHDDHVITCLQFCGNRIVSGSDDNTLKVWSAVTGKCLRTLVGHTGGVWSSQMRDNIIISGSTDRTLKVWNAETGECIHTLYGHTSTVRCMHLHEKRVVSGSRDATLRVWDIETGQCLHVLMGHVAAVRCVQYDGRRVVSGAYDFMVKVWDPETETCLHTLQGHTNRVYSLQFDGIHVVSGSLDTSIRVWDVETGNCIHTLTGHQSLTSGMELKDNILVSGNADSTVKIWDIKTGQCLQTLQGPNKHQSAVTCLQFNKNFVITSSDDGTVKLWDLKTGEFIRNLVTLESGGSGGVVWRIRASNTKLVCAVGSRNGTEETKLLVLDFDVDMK

[1] = variants of: B1
[2] = variants of: B1; remark: listed apart in the source
[3] = variants of: B1; remark: listed apart in the source
[4] = variants of: B1; remark: listed apart in the source
[5] = variants of: B1; remark: listed apart in the source

| effect of a mutation on the interaction [1] | effect of a mutation on the interaction [2] | effect of a mutation on the interaction [3] | effect of a mutation on the interaction [4] | effect of a mutation on the interaction [5] | Variant |
| --- | --- | --- | --- | --- | --- |
| disrupting interaction | decreasing interaction |  |  |  | MADSASESDTDGAGGNSSSSAAMQSSCSSTSGGGGGGGGGGGGGKSGGIVISPFRLEELTNRLASLQQENKVLKIELETYKLKCKALQEENRDLRKASVTIQARAEQEEEFISNTLFKKIQALQKEKETLAVNYEKEEEFLTNELSRKLMQLQHEKAELEQHLEQEQEFQVNKLMKKIKKLENDTISKQLTLEQLRREKIDLENTLEQEQEALVNRLWKRMDKLEAEKRILQEKLDQPVSAPPSPRDISMEIDSPENMMRHIRFLKNEVERLKKQLRAAQLQHSEKMAQYLEEERHMREENLRLQRKLQREMERREALCRQLSESESSLEMDDERYFNEMSAQGLRPRTVSSPIPYTPAPSSSRPISPGLSYASHTVGFTPPTSLTRAGMSYYNSPGLHVQHMGTSHGITRPSPRRSNSPDKFKRPTPPPSPNTQTPVQPPPPPPPPPMQPTVPSAATSQPTPSQHSAHPSSQP [S359A] |
| disrupting interaction |  | decreasing interaction |  |  | MADSASESDTDGAGGNSSSSAAMQSSCSSTSGGGGGGGGGGGGGKSGGIVISPFRLEELTNRLASLQQENKVLKIELETYKLKCKALQEENRDLRKASVTIQARAEQEEEFISNTLFKKIQALQKEKETLAVNYEKEEEFLTNELSRKLMQLQHEKAELEQHLEQEQEFQVNKLMKKIKKLENDTISKQLTLEQLRREKIDLENTLEQEQEALVNRLWKRMDKLEAEKRILQEKLDQPVSAPPSPRDISMEIDSPENMMRHIRFLKNEVERLKKQLRAAQLQHSEKMAQYLEEERHMREENLRLQRKLQREMERREALCRQLSESESSLEMDDERYFNEMSAQGLRPRTVSSPIPYTPSPSSSRPISPGLSYASHTVGFTPPTSLTRAGMSYYNSPGLHVQHMGTSHGITRPSPRRSNSPDKFKRPAPPPSPNTQTPVQPPPPPPPPPMQPTVPSAATSQPTPSQHSAHPSSQP [T427A] |
| disrupting interaction |  |  | decreasing interaction |  | MADSASESDTDGAGGNSSSSAAMQSSCSSTSGGGGGGGGGGGGGKSGGIVISPFRLEELTNRLASLQQENKVLKIELETYKLKCKALQEENRDLRKASVTIQARAEQEEEFISNTLFKKIQALQKEKETLAVNYEKEEEFLTNELSRKLMQLQHEKAELEQHLEQEQEFQVNKLMKKIKKLENDTISKQLTLEQLRREKIDLENTLEQEQEALVNRLWKRMDKLEAEKRILQEKLDQPVSAPPSPRDISMEIDSPENMMRHIRFLKNEVERLKKQLRAAQLQHSEKMAQYLEEERHMREENLRLQRKLQREMERREALCRQLSESESSLEMDDERYFNEMSAQGLRPRTVSSPIPYTPSPSSSRPISPGLSYASHTVGFTPPTSLTRAGMSYYNSPGLHVQHMGTSHGITRPAPRRSNSPDKFKRPTPPPSPNTQTPVQPPPPPPPPPMQPTVPSAATSQPTPSQHSAHPSSQP [S413A] |
|  |  |  |  | disrupting interaction | MADSASESDTDGAGGNSSSSAAMQSSCSSTSGGGGGGGGGGGGGKSGGIVISPFRLEELTNRLASLQQENKVLKIELETYKLKCKALQEENRDLRKASVTIQARAEQEEEFISNTLFKKIQALQKEKETLAVNYEKEEEFLTNELSRKLMQLQHEKAELEQHLEQEQEFQVNKLMKKIKKLENDTISKQLTLEQLRREKIDLENTLEQEQEALVNRLWKRMDKLEAEKRILQEKLDQPVSAPPSPRDISMEIDSPENMMRHIRFLKNEVERLKKQLRAAQLQHSEKMAQYLEEERHMREENLRLQRKLQREMERREALCRQLSESESSLEMDDERYFNEMSAQGLRPRTVSSPIPYTPSPSSSRPISPGLSYASHTVGFTPPTSLTRAGMSYYNSPGLHVQHMGTSHGITRPSPRRSNSPDKFKRPTPPPSPNAQTPVQPPPPPPPPPMQPTVPSAATSQPTPSQHSAHPSSQP [T434A] |
